Biological target: T1, CasM.265466 D220R (unidentified, D220R)
T1 chain: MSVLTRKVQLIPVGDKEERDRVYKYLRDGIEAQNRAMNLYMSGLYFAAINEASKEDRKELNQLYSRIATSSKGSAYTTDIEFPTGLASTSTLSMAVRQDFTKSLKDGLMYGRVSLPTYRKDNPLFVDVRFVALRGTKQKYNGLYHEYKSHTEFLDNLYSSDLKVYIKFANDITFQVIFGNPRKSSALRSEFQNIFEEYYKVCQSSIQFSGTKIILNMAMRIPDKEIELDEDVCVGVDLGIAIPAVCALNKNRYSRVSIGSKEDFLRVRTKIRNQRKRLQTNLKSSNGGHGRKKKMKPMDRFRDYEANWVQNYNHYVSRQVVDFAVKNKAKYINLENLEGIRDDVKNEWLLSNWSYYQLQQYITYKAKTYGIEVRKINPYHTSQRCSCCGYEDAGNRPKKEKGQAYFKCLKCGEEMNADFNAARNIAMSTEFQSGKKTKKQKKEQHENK
Test: cell_activity; AAV8 in hAPOC3 mice, vehicle 936; PAM NNTN
From the text: Samples were collected from mice at 2 and 4 weeks.
Levels of human APOC3 protein in liver were quantified by ELISA. CasM.265466 variant D220R and multiple APOC3 guide RNAs tested reduced human ApoC3 protein in liver at 2 weeks and 4 weeks. […] Liver and body weights were normal at 0, 2 and 4 weeks. At four weeks post injection ALT levels were reduced in mice that received CasM.265466 variant D220R or CasPhi.12 variant L26R when compared those of mice receiving vehicle only. […] The guide IDs shown in the legend from top to bottom correspond to the data points in the graphs from left to right.

B1: R16929 guide ; APOC3 target of R16929 (ssRNA ; dsDNA)
RNA: ACAGCUUAUUUGGAAGCUGAAAUGUGAGGUUUAUAACACUCACAAGAAUCCUGAAAAAGGAUGCCAAACACCUCAGGGUCCAAAUCCCA
DNA 1: ACCTCAGGGTCCAAATCCCA
DNA 2: TGGGATTTGGACCCTGAGGT
Work on B1 yielded an activity of 247 mg/dL serum triglycerides.

B2: R16927 guide ; APOC3 target of R16927 (ssRNA ; dsDNA)
RNA: ACAGCUUAUUUGGAAGCUGAAAUGUGAGGUUUAUAACACUCACAAGAAUCCUGAAAAAGGAUGCCAAACAGUUCUGGGAUUUGGACCCU
DNA 1: AGTTCTGGGATTTGGACCCT
DNA 2: AGGGTCCAAATCCCAGAACT
B2 showed an activity of 145 mg/dL serum triglycerides.

B3: R16928 guide ; APOC3 target of R16928 (ssRNA ; dsDNA)
RNA: ACAGCUUAUUUGGAAGCUGAAAUGUGAGGUUUAUAACACUCACAAGAAUCCUGAAAAAGGAUGCCAAACGACCCUGAGGUCAGACCAAC
DNA 1: GACCCTGAGGTCAGACCAAC
DNA 2: GTTGGTCTGACCTCAGGGTC
B3 was tested, and the activity was 190 mg/dL serum triglycerides.

— patent US20260002151, “COMPOSITIONS AND METHODS FOR THE MODIFICATION AND REGULATION OF LIVER GENE EXPRESSION” (Mammoth Biosciences, Inc., published 2026)
